Experimental data reported in IntAct's records for PubMed 9425168.

B1: Focal adhesion kinase 1 (Gallus gallus (Chicken)), Q00944 (parent)
chain: MAAAYLDPNLNHTPSSSAKTHLGTGMERSPGAMERVLKVFHYFENSSEPTTWASIIRHGDATDVRGIIQKIVDCHKVKNVACYGLRLSHLQSEEVHWLHLDMGVSNVREKFELAHPPEEWKYELRIRYLPKGFLNQFTEDKPTLNFFYQQVKNDYMLEIADQVDQEIALKLGCLEIRRSYGEMRGNALEKKSNYEVLEKDVGLRRFFPKSLLDSVKAKTLRKLIQQTFRQFANLNREESILKFFEILSPVYRFDKECFKCALGSSWIISVELAIGPEEGISYLTDKGANPTHLADFNQVQTIQYSNSEDKDRKGMLQLKIAGAPEPLTVTAPSLTIAENMADLIDGYCRLVNGATQSFIIRPQKEGERALPSIPKLANNEKQGVRSHTVSVSETDDYAEIIDEEDTYTMPSTRDYEIQRERIELGRCIGEGQFGDVHQGIYMSPENPAMAVAIKTCKNCTSDSVREKFLQEALTMRQFDHPHIVKLIGVITENPVWIIMELCTLGELRSFLQVRKFSLDLASLILYAYQLSTALAYLESKRFVHRDIAARNVLVSATDCVKLGDFGLSRYMEDSTYYKASKGKLPIKWMAPESINFRRFTSASDVWMFGVCMWEILMHGVKPFQGVKNNDVIGRIENGERLPMPPNCPPTLYSLMTKCWAYDPSRRPRFTELKAQLSTILEEEKLQQEERMRMESRRQVTVSWDSGGSDEAPPKPSRPGYPSPRSSEGFYPSPQHMVQPNHYQVSGYSGSHGIPAMAGSIYPGQASLLDQTDSWNHRPQEVSAWQPNMEDSGTLDVRGMGQVLPTHLMEERLIRQQQEMEEDQRWLEKEERFLVMKPDVRLSRGSIEREDGGLQGPAGNQHIYQPVGKPDHAAPPKKPPRPGAPHLGSLASLNSPVDSYNEGVKIKPQEISPPPTANLDRSNDKVYENVTGLVKAVIEMSSKIQPAPPEEYVPMVKEVGLALRTLLATVDESLPVLPASTHREIEMAQKLLNSDLAELINKMKLAQQYVMTSLQQEYKKQMLTAAHALAVDAKNLLDVIDQARLKMISQSRPH

Variants of: B1
Details: with src_chick SRC

effect of a mutation on the interaction | Variant
disrupting interaction | Y397F

Variants of: B1
Details: with Src

effect of a mutation on the interaction | Variant
decreasing interaction | Y397F
